The target of assay [1] is Triosephosphate isomerase from G. gallus (G. gallus) (UniProt P00940). As to the kind of experiment: NMR titration; 2.5 μM [U-15N]-TPI with 1 mM GAP, titrated with 0-30 μM ribosomes; integrated amide proton envelope (6.30-10.54 ppm) of 1H-15N HSQC; 10 mM sodium phosphate pH 7.5, 0.1 M NaCl, 290 K; apparent Kd from the total binding equation with a nonspecific term; the paper calls it an upper limit to Kd.

For assay [2] the target is unchanged. The assay is described as follows: NMR titration; 2.5 μM [U-15N]-TPI with 5 mM DHAP, titrated with 0-30 μM ribosomes; integrated amide proton envelope (6.30-10.54 ppm) of 1H-15N HSQC; 10 mM sodium phosphate pH 7.5, 0.1 M NaCl, 290 K; apparent Kd from the total binding equation with a nonspecific term; the paper calls it an upper limit to Kd.

Triosephosphate isomerase from G. gallus (G. gallus), sequence (P00940 whole entry): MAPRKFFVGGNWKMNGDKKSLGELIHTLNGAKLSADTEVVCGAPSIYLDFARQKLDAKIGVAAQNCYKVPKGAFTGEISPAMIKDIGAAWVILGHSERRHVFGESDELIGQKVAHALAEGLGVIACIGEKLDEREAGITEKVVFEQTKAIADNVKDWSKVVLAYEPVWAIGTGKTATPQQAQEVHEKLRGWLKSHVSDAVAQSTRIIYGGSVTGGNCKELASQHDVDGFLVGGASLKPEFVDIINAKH

With “Intact 70S ribosomes from E. coli MRE600 (from UniProt P0A7K2 1-121; P0A7R1 1-149; P0A7J3 1-165; P0A7J7 1-142; P02413 1-144; P0C018 1-117; P0A7L3 1-118; P61175 1-110; P0AG67 1-557; P02358 1-135; P0A7W7 1-130; P0A7R9 1-129) (complex)”, the Kd in assay [1] amounted to 1210 nM; in assay [2] it was 1050 nM.

For the origin of these results see PMC11284791.
